{"source": "paper PMC7583038", "key": {"[1]": {"target": "wild-type eel follicle-stimulating hormone receptor (eel)"}, "[2]": {"target": "wild-type eel follicle-stimulating hormone receptor (eel)", "remark": "listed apart in the source"}}, "data": [{"substance": "recombinant eel follicle-stimulating hormone (ligand)", "values": [{"measurement": "EC50 of the rec-eelFSH-stimulated cAMP response (HTRF) in transfected CHO-K1 cells, 30 min", "setting": "eelFSHR-D540G (eel)", "result": 0.359, "unit": "µg/mL"}, {"measurement": "EC50 of the rec-eelFSH-stimulated cAMP response (HTRF) in transfected CHO-K1 cells, 30 min", "setting": "eelFSHR-D540N (eel)", "result": 0.544, "unit": "µg/mL"}, {"measurement": "EC50 of the rec-eelFSH-stimulated cAMP response (HTRF) in transfected CHO-K1 cells, 30 min", "setting": "[1]", "result": 0.524, "unit": "µg/mL"}, {"measurement": "EC50 of the rec-eelFSH-stimulated cAMP response (HTRF) in transfected CHO-K1 cells, 30 min", "setting": "eelFSHR-R546C (eel)", "result": 0.385, "unit": "µg/mL"}, {"measurement": "EC50 of the rec-eelFSH-stimulated cAMP response (HTRF) in transfected CHO-K1 cells, 30 min (series with the inactivating mutants)", "setting": "[2]", "result": 0.314, "unit": "µg/mL"}]}]}
